The chains are these.
B1: TPR t1 (parent)
chain: GACCAAUCUGCCCUCAGAGCUCGAGAACAUCUUCGGAUGCAGAGGAGGCAGGCUUCGGUGGCGCGAUAGCGCCAACGUCCUCAACCUCCAAUGCAUCCCACCACAUGAUGAUGCCUGAAGAGCCUUGGUUUUUUG

This series covers variants of B1. In words: polymerase ribozyme fitness, log enrichment relative to wild type (log ratio); higher = more active; in vitro selection for triplet polymerase activity. In a few lines:
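Only genotypes with ≥10 input reads and ≥1 read per output were kept after Illumina sequencing of input and output libraries. These libraries were PCR-built, transcribed mutants of each subunit of a heterodimeric triplet polymerase ribozyme, each put through one triplicate in vitro selection round with frozen incubation at −7 °C, gel excision of extended constructs, streptavidin-bead capture and RT-PCR. Fitness is a logarithmic ratio of genotype enrichment to wild-type enrichment, from inverse-variance-weighted replicate averages, with the logarithm in base 2.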
Consider GACCAAUCUGCCCUCAGAGCUCGAGAACAUCUUCGGAUGCAGAGGAGGCAGGCUUCGGUCGCGCGAUAGCGCCAACGUCCUCAACCUCCAAUGCAUCCCACCACAUGAUGAUGCCUGUAGAGCCUUGGUUUUUUG, for which the “polymerase ribozyme fitness (log ratio)” value is -0.0622. Take GACCAAUCUGCCCUCAGAGCUCGAGAACAUCUUCGGAUGCAGAGGAGGCAGGCUUCGGUCGCGCGAUAGCGCCAACGUCCUCAACUUCCAAUGCAUCCCACCACAAGAUGAUGCCUGAAGAGCCUUGGUUUUUUG: the “polymerase ribozyme fitness (log ratio)” value was -0.567. Consider GACCAAUCUGCCCUCAGAGCUCGAGAACAUCUUCGGAUGCAGAGGAGGCAGGCUUCGGUAGCGCGAUAGCGCCAACGUCCUCAACCUUCAAUGCAUCCCACCACAUGAUGAUGCCUGAAGAGCCUUAGUUUUUUG, for which the “polymerase ribozyme fitness (log ratio)” value was -1.7. For GACCAAUCUGCCCUCAGAGCUCGAGAACAUCUUCGGAUGCAGAGGAGGCAGGCUUCGGUCGCGCGAUAGCGCCAACGUCCUCAACCUACAAUGCAUCCCACCACAUGAUGAAGCCUGAAGAGCCUUGGUUUUUUG, the “polymerase ribozyme fitness (log ratio)” value is -0.182. As for GACCAAUCUGCCCUCAGAGCUCGAGAACAUCUUCGGAUGCAGAGGAGGCAGGCUUCGGUAGCGCGAUAGCGCCAACGUCCUCAACCUCCAAUGCAUCCCACCACAUGAUGAUGCCUGAAGAGCCUUGGUUGUUUG, the figure is 0.0187; as for GACCAAUCUGCCCUCAGAGCUCGAGAACAUCUUCGGAUGCAGAGGAGGCAGGCUUCGGUCGCGCGGUAGCGCCAACGUCCUCAACCUCCAAUGCAUCCCACCACAUGAUGAUGCCUGAAGAGCCUUGGUUUUUUG, -1.22; as for GACCAAUCUGCCCUCAGAGCUCGAGAACAUCUUCGGAUGCAGAGGAGGCAGGCUUCGGUAGCGCGAUAGCGCCAACUUCCUCAACCUCCAAUGCAUCCCACCACAUGAUGAUGCCUGAAGAGCCUUGGUUUUUUG, -0.312. As for GACCAAUCUGCCCUCAGAGCUCGAGAACAUCUUCGGAUGCAGAGGAGGCAGGCUUCGGUAGCGCGAUAGCGCCAACGUCCUCAACCUCCAAUGCAUCCCACCACAUGAUGAUGCCUGAACAGCCUUGGUUUUUUG, the figure is 0.892; as for GACCAAUCUGCCCUCAGAGCUCGAGAACAUCUUCGGAUGCAGAGGAGGCAGGCUUCGGUCGCGCGAUAGCGCCUACGUCCUCAACCUGCAAUGCAUCCCACCACAUGAUGAUGCCUGAAGAGCCUUGGUUUUUUG, -2.91; as for GACCAAUCUGCCCUCAGAGCUCGAGAACAUCUUCGGAUGCAGAGGAGGCAGGCUUCGGUAGCGCGAUAGCGCCAACGUCCUCAACCUCCAAUGCAUCCCACCACAUGAUGAUGCCUUAAGAGCCUUGGUUUUUUG, -1.75. As for GACCAAUCUGCCCUCAGAGCUCGAGAACAUCUUCGGAUGCAGAGGAGGCAGGCUUCGGUAGCGCGAUAGCGCCAACGUCCUCAACCUCCAAUGCAUCCCACCACAUGAUGAUGCCUCAAGAGCCUUGGUUUUUUG, the figure is -2.42. Consider GACCAAUCUGCCCUCAGAGCUCGAGAACAUCUUCGGAUGCAGAGGAGGCAGGCUUCGGUAGCACGAUAGCGCCAACGUCCUCAACCUCCAAUGCAUCCCACCACAUGAUGAUGCCUGAAGAGCCUUGGUUUUUUG, for which the “polymerase ribozyme fitness (log ratio)” value is -2.96. As for GACCAAUCUGCCCUCAGAGCUCGAGAACAUCUUCGGAUGCAGAGGAGGCAGGCUUCGGUAGCGCGAUAGCGCCAACGUCCUCAACCUCCAAUGCAUCCCAUCACAUGAUGAUGCCUGAAGAGCCUUGGUUUUUUG, the figure is -0.265.

With GACCAAUCUGCCCUCAGAGCUCGAGAACAUCUUCGGAUGCAGAGGAGGCAGGCUUCGGUCGCGCGAUAGCGCCAACGUCCUCAACCUCUAAUGCAUCCCACCACAUGAUGAUGCCUGAAGAGGCUUGGUUUUUUG, the “polymerase ribozyme fitness (log ratio)” value amounted to 1.06.

For the variant GACCAAUCUGCCCUCAGAGCUCGAGAACAUCUUCGGAUGCAGAGGAGGCAGGCUUCGGUAGCGCGAUAGCGCCAACGUCCUCAACCUCCAAUGCAUCCCACCACAUGAUGAUGCAUGAAGAGCCUUGGUUUUUUG, the “polymerase ribozyme fitness (log ratio)” value is -0.714.

With GACCAAUCUGCCCUCAGAGCUCGAGAACAUCUUCGGAUGCAGAGGAGGCAGGCUUCGGUAGCGCGAUAGCGCCAACGUCCUCAACCUCCAAUGCAUCCCACCACAUGAUGAUGCGUGAAGAGCCUUGGUUUUUUG, the “polymerase ribozyme fitness (log ratio)” value was -1.65. As for GACCAAUCUGCCCUCAGAGCUCGAGAACAUCUUCGGAUGCAGAGGAGGCAGGCUUCGGUCGCGCGAUAGCGCCAACGUCCUCAACCUCCAAUGCAUCCCACCUCAUGAUGAUGCCUGAAGAGCCUUGGUUUUUUG, the figure is -5.01. As for GACCAAUCUGCCCUCAGAGCUCGAGAACAUCUUCGGAUGCAGAGGAGGCAGGCUUCGGUCGCGCGAUAGCGCCAACGUCCUCAACUUCCAAUGCAUCCCACCACAGGAUGAUGCCUGAAAAGCCUUGGUUUUUUG, the figure is -2.2. As for GACCAAUCUGCCCUCAGAGCUCGAGAACAUCUUCGGAUGCAGAGGAGGCAGGCUUCGGUAGCGCGAUAGCGCCAACCUCCUCAACCUCCAAUGCAUCCCACCACAUGAUGCUGCCUGAAGAGACUUGGUUUUUUG, the figure is -3.68; as for GACCAAUCUGCCCUCAGAGCUCGAGAACAUCUUCGGAUGCAGAGGAGGCAGGCUUCGGUAGCGCGAUAGCGCCAACGUCCUCAACCUCCAAUGCAUCCCACCAUAUGAUGAUGCCUGAAGAGCCUUGGUUUUUUG, 0.164. For the variant GACCAAUCUGCCCUCAGAGCUCGAGAACAUCUUCGGAUGCAGAGGAGGCAGGCUUCGGUAGCGCGAUAGCGCCAACGUCCUCAACCUCCAAUGCAUCCCACCACAUGAUGACGCCUGAAGAGCCUUGGUUUUUUG, the “polymerase ribozyme fitness (log ratio)” value came to 1.25. With GACCAAUCUGCCCUCAGAGCUCGAGAACAUCUUCGGAUGCAGAGGAGGCAGGCUUCGGUAGCGCGAUAGCGCCAACGUCCUCAACCUCCAAUGCAUCCCACCACAUGAUUAUGCCUGAAGAGCCUUGGUUUUUUG, the “polymerase ribozyme fitness (log ratio)” value was -1.74. For GACCAAUCUGCCCUCAGAGCUCGAGAACAUCUUCGGAUGCAGAGGAGGCAGGCUUCGGUAGCGCGAUAGCGCCAACGUCCUCAACCUCCAAUGCAUCCAACCCCAUGAUGCUGCCUGAAGAGCCUUGGUUUUUUG, the “polymerase ribozyme fitness (log ratio)” value was -6.52. As for GACCAAUCUGCCCUCAGAGCUCGAGAACAUCUUCGGAUGCAGAGGAGGCAGGCUUCGGUAGCGCGAUAGCGCCAACGUCCUCAACCUCCAAUGCAUCCUACCACAUGAUGAUGCCUGAAGAGCCUUAGUUUUUUG, the figure is -4.87. As for GACCAAUCUGCCCUCAGAGCUCGAGAACAUCUUCGGAUGCAGAGGAGGCAGGCUUCGGUCGCGCGAUAGCGCCAACGUCCUCAACCUCCAAUGCAUCCCACCACAUGAUGGUGCCUGAAGAGCCUUGGUUUUUUG, the figure is -0.122. As for GACCAAUCUGCCCUCAGAGCUCGAGAACAUCUUCGGAUGCAGAGGAGGCAGGCUUCGGUAGCGCGAUAGCGCCAACGUCCUCAACCUCCAAUGUAUCCCACCACAUGAUGAUGCCUGAAGAGCUUUGGUUUUUUG, the figure is 1.59; as for GACCAAUCUGCCCUCAGAGCUCGAGAACAUCUUCGGAUGCAGAGGAGGCAGGCUUCGGUCGUGCGAUAGCGCCAACGUCCUCAACCUCCAAUGCAUCCCACCACAUGAUGAUGCCUGAAGAGCCUUGGUUUUUUG, -2.34.

GACCAAUCUGCCCUCAGAGCUCGAGAACAUCUUCGGAUGCAGAGGAGGCAGGCUUCGGUAGCGCGAUAGCGCCAACGUCCUCAACCUCCAAUGCAUCCCACCACAUGAUGAUGCCCGAAGAGCCUUGGUUUUUUG: the “polymerase ribozyme fitness (log ratio)” value was -0.935. As for GACCAAUCUGCCCUCAGAGCUCGAGAACAUCUUCGGAUGCAGAGGAGGCAGGCUUCGGUAGCGCGAUAGCGCCAACGUCCUCAACCUCCAAUGAAUCCCACCACAUGAUGAUGCCUGAAGAGCCUUGCUUUUUUG, the figure is -3.09; as for GACCAAUCUGCCCUCAGAGCUCGAGAACAUCUUCGGAUGCAGAGGAGGCAGGCUUCGGUAGCGCGAUAGCGCCAACGUCCUCAACCUCCAAGGCAUCCCACCACAUGAUGAUGCAUGAACAGCCUUGGUUUUUUG, -2.03. As for GACCAAUCUGCCCUCAGAGCUCGAGAACAUCUUCGGAUGCAGAGGAGGCAGGCUUCGGUAGCGCGAUAGCGCCAACGUCCUCAACCUCCAAUGCACCCCACCACAUGAUGAUGCCUGGAGAGCCUUGGUUUUUUG, the figure is -0.126; as for GACCAAUCUGCCCUCAGAGCUCGAGAACAUCUUCGGAUGCAGAGGAGGCAGGCUUCGGUCGCGCGAUAGCGCCAACGUCCUCAACCUCCAAUGCAUCCCACCACAUGAUGAUGCCUGAAGUGCCGUGGGUUUUUG, -0.914; as for GACCAAUCUGCCCUCAGAGCUCGAGAACAUCUUCGGAUGCAGAGGAGGCAGGCUUCGGUAGCGCGAUAGCGCCAACGUCCUCAACCUCCAAUACAUCCCACCACAUGAUGAUGCCUGAAGAGCCUUGGUUUUUUG, 0.0256. As for GACCAAUCUGCCCUCAGAGCUCGAGAACAUCUUCGGAUGCAGAGGAGGCAGGCUUCGGUCGCGCGAUAGCGCCAACGUCCUCAACCUCCAAUGAAUCCCACUACAAGAUGAUGCCUGAAGAGCCUUGGUUUUUUG, the figure is -6.72; as for GACCAAUCUGCCCUCAGAGCUCGAGAACAUCUUCGGAUGCAGAGGAGGCAGGCUUCGGUAGCGCGAUAUCGCCAACGUCCUUAAGCUCCAAUGCAUCCCACCACAUGAUGAUGCCUGAAGAGCCUUGGAUUUUUG, -4.53; as for GACCAAUCUGCCCUCAGAGCUCGAGAACAUCUUCGGAUGCAGAGGAGGCAGGCUUCGGUAGCGCGAUAGCGCCAACGUCCUCAACCUCCAAUGCAUCCCACCACAUGAUGAUGCCUGAAGAGCCUUGGUAUUUUG, -0.439. For the variant GACCAAUCUGCCCUCAGAGCUCGAGAACAUCUUCGGAUGCAGAGGAGGCAGGCUUCGGUAGCGCGAUAGCGCCAACGUCCUCAACCUCCAAUGCAUCCCACCACAUGAUGAUGCCUGAAGAGCCUUGGUGUUUUG, the “polymerase ribozyme fitness (log ratio)” value is -0.663. As for GACCAAUCUGCCCUCAGAGCUCGAGAACAUCUUCGGAUGCAGAGGAGGCAGGCUUCGGUCGCGCGAUAGCGCCAACGUCAUCAACCUCCAAUGCAUCCCACCACAUGAUGAUGCCUGAAGAGCCUUGGUUUUUUG, the figure is -4.35; as for GACCAAUCUGCCCUCAGAGCUCGAGAACAUCUUCGGAUGCAGAGGAGGCAGGCUUCGGUAGCGCGAUAGCGCCAACGUCCUCAACCUCCAAUGCAUCCCACCACAUGAUGAUGCCUGAAGAACCUUGGUUUCUUG, -0.379. GACCAAUCUGCCCUCAGAGCUCGAGAACAUCUUCGGAUGCAGAGGAGGCAGGCUUCGGUCGCGCGAUAGCGCCAACGUCCUCCACCUCCAAUGCAUCCCACCACAUGAUGAUGCUUGAAGAGCCUUGGUUUUUUG: the “polymerase ribozyme fitness (log ratio)” value is -1.05. As for GACCAAUCUGCCCUCAGAGCUCGAGAACAUCUUCGGAUGCAGAGGAGGCAGGCUUCGGUAGCGCGAUAGCGCCAACGUCCUCAACCUCCAAUGUAUCCCACCACAUGAUGAUGCCUGAAGAGCCUUGGUUUUUUG, the figure is -0.196; as for GACCAAUCUGCCCUCAGAGCUCGAGAACAUCUUCGGAUGCAGAGGAGGCAGGCUUCGGUCGCGCGAUAGCGCCUACGUCCGCAACCUCCAAUGCAUCCCACCACAUGAUGAUGCAUGAAGAGCCUUGGUUUUUUG, -3.12.
